Assay [1] addresses T1, IDE (Homo sapiens, UniProt P14735).
T1 construct: made in house; host or cells: bacteria
T1 sequence (P14735 1-1019): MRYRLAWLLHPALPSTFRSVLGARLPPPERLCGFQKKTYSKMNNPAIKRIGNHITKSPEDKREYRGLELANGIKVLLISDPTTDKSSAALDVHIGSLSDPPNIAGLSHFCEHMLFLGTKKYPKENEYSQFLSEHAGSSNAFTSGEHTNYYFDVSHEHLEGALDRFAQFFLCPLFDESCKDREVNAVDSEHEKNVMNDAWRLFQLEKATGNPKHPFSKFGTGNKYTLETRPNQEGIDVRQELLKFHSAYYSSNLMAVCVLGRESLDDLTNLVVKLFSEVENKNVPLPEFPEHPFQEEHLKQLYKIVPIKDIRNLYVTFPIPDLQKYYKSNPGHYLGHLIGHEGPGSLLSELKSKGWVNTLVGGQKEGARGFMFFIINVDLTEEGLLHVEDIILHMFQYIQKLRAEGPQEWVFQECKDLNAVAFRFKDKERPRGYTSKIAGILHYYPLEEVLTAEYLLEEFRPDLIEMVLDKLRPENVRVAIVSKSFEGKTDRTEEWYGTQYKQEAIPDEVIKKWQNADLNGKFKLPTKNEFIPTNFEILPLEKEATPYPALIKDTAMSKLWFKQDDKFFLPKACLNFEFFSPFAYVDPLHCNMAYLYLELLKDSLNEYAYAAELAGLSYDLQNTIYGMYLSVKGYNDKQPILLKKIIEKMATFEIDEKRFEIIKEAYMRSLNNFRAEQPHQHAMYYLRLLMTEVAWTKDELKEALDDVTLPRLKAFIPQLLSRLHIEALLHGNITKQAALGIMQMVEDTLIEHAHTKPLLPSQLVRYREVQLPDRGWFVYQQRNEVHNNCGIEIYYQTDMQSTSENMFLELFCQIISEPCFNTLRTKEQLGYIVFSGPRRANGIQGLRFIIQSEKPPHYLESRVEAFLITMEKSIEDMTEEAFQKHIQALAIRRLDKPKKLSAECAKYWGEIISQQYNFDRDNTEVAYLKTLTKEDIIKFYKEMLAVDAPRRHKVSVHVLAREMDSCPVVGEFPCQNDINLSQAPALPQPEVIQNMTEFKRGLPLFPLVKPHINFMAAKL
The assay is described as follows: IDE protease activity assay with FRET1 substrate. It counts as biochemical. The settings on record: Ki converted from IC50 with the Cheng-Prusoff equation.

The target in assay [2] is T1, IDE. The assay is described as follows: IDE protease activity assay, insulin degradation quantified by ELISA. The class given is biochemical. The conditions noted are these: substrate recombinant human insulin; Ki converted from IC50 with the Cheng-Prusoff equation; read-out: Ki Insulin. The procedure:
To assess the extent to which these peptide sequences inhibit IDE, we quantified their potency in protease activity assays using recombinant human IDE and two different substrates: FRET1, a fluorogenic peptide (45), and recombinant human insulin.
Degradation Assays—IDE activity was quantified by monitoring the degradation of (7-methoxycoumarin-4-yl)acetic acid-[…](2,4-dinitrophenyl) (FRET1, 5 μM) (49,55), fluoresceinated and biotinylated amyloid β-protein (FAβB; 500 nM) or recombinant human insulin (50 nM) in PBS supplemented with 0.05% BSA. FRET1 degradation was measured by changes in fluorescence (λex=340 nm, λem=420 nm); FAβB degradation was monitored by fluorescence polarization (λex=488 nm, λem=525 nm), as described (56); and insulin degradation was quantified by ELISA. In vitro activity assays incorporated recombinant human IDE (1 nM) purified from bacteria (35). For quantitation of insulin degradation in primary murine skin fibroblasts, cells (1×10^5/well) were plated in 96-well plates and maintained in DMEM supplemented with 10% fetal bovine serum (FBS), 2 mM glutamine, penicillin and streptomycin. After addition of insulin (10 nM or 100 nM), samples of conditioned medium were removed daily and quickly frozen, then insulin levels were quantified in parallel by ELISA according to manufacturer's recommendations (Crystal Chem, Downers Grove, Ill., USA). Assessment of the activity of P12-3A against a variety of matrix-metalloproteases was conducted using the Matrix Metalloproteinase (MMP) Inhibitor Profiling Kit, Fluorometric RED (Enzo Life Sciences, Inc., Farmingdale, N.Y., USA) according to manufacturer's recommendations using the broad-spectrum MMP inhibitor, NNGH, as a positive control.
Background: ELISA stands for enzyme-linked immunosorbent assay.

The target of assay [3] is T2, recombinant human insulin-degrading enzyme (IDE) (human, UniProt P14735 42-1019, limits assumed).
T2 construct: Used at 1 nM in the in vitro activity assays; immobilised on plates for phage panning
T2 sequence (looked up): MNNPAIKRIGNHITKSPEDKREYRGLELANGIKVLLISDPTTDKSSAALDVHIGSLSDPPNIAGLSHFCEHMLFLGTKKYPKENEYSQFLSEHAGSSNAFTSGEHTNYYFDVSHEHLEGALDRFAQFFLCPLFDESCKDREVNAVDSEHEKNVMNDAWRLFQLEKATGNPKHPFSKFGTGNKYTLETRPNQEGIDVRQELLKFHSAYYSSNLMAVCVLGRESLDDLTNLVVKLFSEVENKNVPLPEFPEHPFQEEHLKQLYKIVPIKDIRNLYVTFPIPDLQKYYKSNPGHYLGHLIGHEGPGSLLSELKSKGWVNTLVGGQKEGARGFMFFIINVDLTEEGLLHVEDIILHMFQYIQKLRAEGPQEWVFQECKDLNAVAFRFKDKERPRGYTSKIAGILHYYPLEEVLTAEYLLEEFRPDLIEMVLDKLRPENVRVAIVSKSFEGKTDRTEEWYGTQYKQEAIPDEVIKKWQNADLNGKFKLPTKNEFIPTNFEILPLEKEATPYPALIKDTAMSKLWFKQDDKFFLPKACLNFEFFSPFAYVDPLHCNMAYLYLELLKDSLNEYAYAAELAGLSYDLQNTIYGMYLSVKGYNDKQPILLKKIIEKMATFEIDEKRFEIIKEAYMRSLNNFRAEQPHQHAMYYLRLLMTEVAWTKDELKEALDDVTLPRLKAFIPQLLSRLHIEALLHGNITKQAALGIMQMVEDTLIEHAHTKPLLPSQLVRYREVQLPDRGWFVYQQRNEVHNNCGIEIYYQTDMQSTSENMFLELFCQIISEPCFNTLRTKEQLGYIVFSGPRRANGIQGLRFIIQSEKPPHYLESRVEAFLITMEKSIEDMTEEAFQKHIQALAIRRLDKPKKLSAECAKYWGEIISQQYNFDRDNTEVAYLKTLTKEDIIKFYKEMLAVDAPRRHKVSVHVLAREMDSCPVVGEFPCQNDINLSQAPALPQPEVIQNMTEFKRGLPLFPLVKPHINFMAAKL
The experiment in a line: IDE activity assay, insulin substrate (ELISA).

The target in assay [4] is T2, recombinant human insulin-degrading …. The assay is described as follows: IDE activity assay, FRET1 substrate.

Among the data in patent US11555055B2, “Peptide inhibitors of insulin-degrading enzyme” (The Regents of the University of California, priority 2017, dated 2023) are Ki values, retold here.

A word on the Ki: it is a measure of affinity in units of concentration, obtained from inhibition or displacement.

Where a SMILES comes first, the peptide text is derived from it. Bridges are numbered along the chain shown (N, C = ends). Where no end group is shown, it is not given here. Bounds are passed on as bounds.

`CC(C)C[C@H](NC(=O)[C@H](CO)NC(=O)[C@@H](N)CCC(N)=O)C(=O)N1CCC[C@H]1C(=O)N[C@@H](Cc1c[nH]c2ccccc12)C(=O)N[C@@H](CS)C(=O)N[C@@H](Cc1ccc(O)cc1)C(=O)N1CCC[C@H]1C(N)=O` [Peptide P12-3B] (H-QSLPWCYP-NH2): the affinity in assay [1], expressed as Ki, was 39 ± 20 µM.

Consider `CC[C@H](C)[C@H](NC(=O)[C@@H]1CCCN1C(=O)[C@H](CO)NC(=O)[C@@H](N)Cc1c[nH]c2ccccc12)C(=O)N[C@@H](CO)C(=O)NCC(=O)N[C@@H](CCCCN)C(=O)N[C@@H](Cc1ccccc1)C(=O)N[C@@H](Cc1ccccc1)C(=O)N[C@@H](CCC(N)=O)C(=O)N[C@@H](CCCNC(=N)N)C(=O)N[C@@H](Cc1ccccc1)C(N)=O` [Peptide P12-4A] (H-WSPISGKFFQRF-NH2), for which the figures for the Ki in assay [1] and in assay [2] were 4.2 ± 1.3 µM and 2.6 ± 0.7 µM, respectively. Regarding `CC(C)[C@H](N)C(=O)N[C@@H](Cc1c[nH]cn1)C(=O)N[C@@H](Cc1c[nH]c2ccccc12)C(=O)N[C@@H](CC(=O)O)C(=O)N[C@@H](Cc1ccccc1)C(=O)N[C@@H](CCCNC(=N)N)C(=O)N[C@@H](CCC(N)=O)C(=O)N[C@@H](Cc1c[nH]c2ccccc12)C(N)=O` [Peptide P12-1B] (H-VHWDFRQW-NH2), the inhibition constant Ki in assay [1] was determined as 41 ± 6.4 µM; in assay [2] it was 7 ± 1.7 µM. Taken in the same sequence, the figures for `CC(C)[C@H](N)C(=O)N[C@@H](Cc1c[nH]cn1)C(=O)N[C@@H](Cc1c[nH]c2ccccc12)C(=O)N[C@@H](CC(=O)O)C(=O)N[C@@H](Cc1ccccc1)C(=O)N[C@@H](CCCNC(=N)N)C(=O)N[C@@H](CCC(N)=O)C(=O)N[C@@H](Cc1c[nH]c2ccccc12)C(=O)N[C@@H](Cc1c[nH]c2ccccc12)C(=O)N[C@@H](CCC(N)=O)C(=O)N1CCC[C@H]1C(=O)N[C@@H](CO)C(N)=O` [Peptide P12-1A] (H-VHWDFRQWWQPS-NH2) were 5 ± 0.3 µM and 1.3 ± 0.2 µM. As to `CC(C)[C@H](N)C(=O)N[C@@H](Cc1c[nH]cn1)C(=O)N[C@@H](Cc1c[nH]c2ccccc12)C(=O)N[C@@H](CC(=O)O)C(=O)N[C@@H](Cc1ccccc1)C(=O)N[C@@H](CCCNC(=N)N)C(=O)N[C@@H](CCC(N)=O)C(=O)N[C@@H](Cc1c[nH]c2ccccc12)C(=O)N[C@@H](Cc1c[nH]c2ccccc12)C(=O)N[C@@H](CCC(N)=O)C(=O)N1CCC[C@H]1C(=O)N[C@@H](CO)C(=O)O` [Peptide P12-1] (H-VHWDFRQWWQPS-OH), the Ki in assay [1] worked out at 7.7 ± 0.7 µM; in assay [2] it was 0.8 ± 0.04 µM. Take `CC[C@H](C)[C@@H]1NC(=O)[C@H](CO)NC(=O)[C@H](Cc2c[nH]c3ccccc23)NC(=O)[C@H](Cc2c[nH]c3ccccc23)NC(=O)[C@H](CO)NC(=O)[C@@H](NC(=O)[C@H](C)N)CSSC[C@@H](C(=O)NCC(=O)O)NC(=O)[C@H](CC(C)C)NC(=O)[C@H](Cc2c[nH]cn2)NC1=O` [Peptide C7C-1] (H-ACSWWSIHLCG-OH; disulfide 2-10): the values for the inhibitory constant (Ki) in assay [1] and in assay [2] were 112 ± 6 µM and 3.7 ± 0.7 µM, respectively.

B1: P12-3C (peptide)
peptide: Ac-WCYPHCVT-OH
modifications: cysteine pairing not given here
notes: also called N-terminally truncated variant of P12-3
Take B1: the Ki in assay [3] was > 10 µM.

B2: P12-2D (peptide)
peptide: Ac-FPMPSRPH-NH2
Consider B2, for which the inhibition constant Ki is > 500 µM in assay [4] and > 10 µM in assay [3].

B3: P12-2B (peptide)
peptide: LNFPMPSR-NH2
As for B3, the Ki was > 500 µM in assay [4] and > 10 µM in assay [3].

B4: P12-4C (peptide)
peptide: Ac-SGKFFQRF
Take B4: the figures for the Ki in assay [4] and in assay [3] were > 500 µM and > 10 µM, respectively.

B5: C7C-2A (peptide)
peptide: ACNAGHLSQCG-NH2
modifications: disulfide 2-10 (inferred)
notes: also called amidated derivative of C7C-2
Take B5: the Ki in assay [4] is > 500 µM; in assay [3], > 10 µM.

B6: P12-2A (peptide)
peptide: LNFPMPSRPHSS-NH2
In the case of B6, the Ki in assay [4] is > 100 µM; in assay [3], > 10 µM.

B7: P12-2 (peptide)
peptide: LNFPMPSRPHSS
Consider B7, for which the inhibition constant Ki is > 100 µM in assay [4] and > 10 µM in assay [3].

B8: P12-4B (peptide)
peptide: WSPISGKF-NH2
Regarding B8, the inhibition constant Ki in assay [4] was > 500 µM; in assay [3], > 10 µM.

B9: P12-4D (peptide)
peptide: Ac-PISGKFFQ-NH2
Consider B9, for which the figures for the Ki in assay [4] and in assay [3] were > 500 µM and > 10 µM, respectively.

B10: C7C-1B (peptide)
peptide: ACSWWSIHLCGGG
modifications: disulfide 2-10 (inferred)
For B10, the Ki in assay [4] is > 100 µM; in assay [3] it was > 10 µM.

B11: C7C-2 (peptide)
peptide: ACNAGHLSQCG
modifications: disulfide 2-10 (inferred)
notes: the synthesized peptide has one C-terminal glycine
Consider B11, for which the Ki in assay [4] is > 500 µM; in assay [3], > 10 µM.

B12: P12-2C (peptide)
peptide: Ac-MPSRPHSS
For B12, the Ki in assay [4] was > 500 µM; in assay [3] it was > 10 µM.

B13: P12-3B (peptide)
peptide: QSLPWCYP-NH2
notes: also called C-terminally truncated variant of P12-3
Turning to B13, the Ki in assay [3] was > 10 µM.
